Biological target: Bacillus pseudofirmus Mrp antiporter complex (hetero-heptamer MrpA-MrpG, one protomer) (Bacillus pseudofirmus) (UniProt Q9RGZ5)
Assay: cryo-EM structure; purified Mrp dimer fractions in 20 mM Tris-HCl pH 8.0, 150 mM NaCl, 0.05% LMNG, 1-2 mg/ml; dimer map 2.96 Å, symmetry-expanded protomer map 2.2 Å

- stoichiometry N: 2
Substance: Bacillus pseudofirmus Mrp antiporter complex (hetero-heptamer MrpA-MrpG, one protomer) (from UniProt Q9RGZ5 1-805; Q9RGZ4 1-144; Q9RGZ3 1-112; Q9RGZ2 1-493; Q9RGZ1 1-158; Q9RGZ0 1-91; Q9RGY9 1-119)

From paper PMC9568556
